Consider 75 variants from PMC12102759 (2025).

Sequences and labels used below:
B1: RNF115 peptide 67-82 (E3 ubiquitin-protein ligase RNF115), 16-mer library wild type / MDM2 SWIB (MDM2 SWIB/MDM2 domain, residues 17-125) (parent complex)
chain 1: TTTHFAELWGHLDHTM
chain 2: SQIPASEQETLVRPKPLLLKLLKSVGAQKDTYTMKEVLFYLGQYIMTKRLYDEKQQHIVYCSNDLLGDLFGVPSFSVKEHRKIYTMIYRNLVVVNQQESSDSGTSVSEN
B2: PIP5K1C peptide 642-657 (Phosphatidylinositol 4-phosphate 5-kinase type-1 gamma), 16-mer library wild type / TLN1 PTB (TLN1 Phosphotyrosine-binding (PTB) domain, residues 309-401) (parent complex)
chain 1: TDERSWVYSPLHYSAQ
chain 2: GVSFFLVKEKMKGKNKLVPRLLGITKECVMRVDEKTKEVIQEWNLTNIKRWAASPKSFTLDFGDYQDGYYSVQTTEGEQIAQLIAGYIDIILK

In one test the parent is B1. Description: proteomic peptide phage display deep mutational scan (ProP-PD DMS): M13 P8 16-mer library selected against immobilised GST-tagged bait for four days (rounds), NGS of the eluted pools per day and pseudo-replica; bait immobilised on MaxiSorp plates (10 µg), library pre-cleared on GST, 2 h binding at 4 °C, five washes; one round per day, days 1-4; value from days 2 and 3.
As for chain 1 T3M, the screen value was 0.000962 average fractional NGS count over selection days 2 and 3 (reads of this peptide / all reads for the bait, averaged over ….
On the same count and under the same terms, with chain 1 T3E the figure was 0.00168 average fractional NGS count over selection days 2 and 3 (reads of this peptide / all reads for the bait, averaged over …; with chain 1 T3G, 0.000204 average fractional NGS count over selection days 2 and 3 (reads of this peptide / all reads for the bait, averaged over ….

The next test covers variants of B2. The description is as above.
As for chain 1 Y13T, the screen value is 0.000772 average fractional NGS count over selection days 2 and 3 (reads of this peptide / all reads for the bait, averaged over ….
On the same count and under the same terms, then chain 1 Y13W, with 0.000603 average fractional NGS count over selection days 2 and 3 (reads of this peptide / all reads for the bait, averaged over …; and chain 1 Y13H, with 0.000476 average fractional NGS count over selection days 2 and 3 (reads of this peptide / all reads for the bait, averaged over ….
Turning to chain 1 Y13I, the screen value was 0.00816 average fractional NGS count over selection days 2 and 3 (reads of this peptide / all reads for the bait, averaged over ….
Regarding chain 1 Y13P, the screen value is 0.00124 average fractional NGS count over selection days 2 and 3 (reads of this peptide / all reads for the bait, averaged over ….
As for chain 1 T1Q, the screen value was 0.00112 average fractional NGS count over selection days 2 and 3 (reads of this peptide / all reads for the bait, averaged over ….
On to chain 1 T1Y, for which the screen value is 0.000499 average fractional NGS count over selection days 2 and 3 (reads of this peptide / all reads for the bait, averaged over ….
The same measure, in the same setting: with chain 1 T1R the figure was 0.00306 average fractional NGS count over selection days 2 and 3 (reads of this peptide / all reads for the bait, averaged over …; with chain 1 T1S, 0.00255 average fractional NGS count over selection days 2 and 3 (reads of this peptide / all reads for the bait, averaged over ….
Regarding chain 1 T1A, the screen value is 0.00341 average fractional NGS count over selection days 2 and 3 (reads of this peptide / all reads for the bait, averaged over ….
For the variant chain 1 T1M, the screen value was 0.000328 average fractional NGS count over selection days 2 and 3 (reads of this peptide / all reads for the bait, averaged over ….
On the same count and under the same terms, then chain 1 W6R, with 0.000143 average fractional NGS count over selection days 2 and 3 (reads of this peptide / all reads for the bait, averaged over …; and chain 1 A15R, with 0.000696 average fractional NGS count over selection days 2 and 3 (reads of this peptide / all reads for the bait, averaged over ….
Same read-out and setting: with chain 1 A15H the figure was 0.000752 average fractional NGS count over selection days 2 and 3 (reads of this peptide / all reads for the bait, averaged over …; with chain 1 A15N, 0.000427 average fractional NGS count over selection days 2 and 3 (reads of this peptide / all reads for the bait, averaged over …; with chain 1 A15W, 0.00297 average fractional NGS count over selection days 2 and 3 (reads of this peptide / all reads for the bait, averaged over ….
In the case of chain 1 A15T, the screen value is 0.00116 average fractional NGS count over selection days 2 and 3 (reads of this peptide / all reads for the bait, averaged over ….
On the same count and under the same terms, with chain 1 A15E the figure was 0.00381 average fractional NGS count over selection days 2 and 3 (reads of this peptide / all reads for the bait, averaged over …; with chain 1 D2P, 0.00102 average fractional NGS count over selection days 2 and 3 (reads of this peptide / all reads for the bait, averaged over …; with chain 1 D2Q, 0.00198 average fractional NGS count over selection days 2 and 3 (reads of this peptide / all reads for the bait, averaged over ….
With chain 1 D2N, the screen value is 0.000972 average fractional NGS count over selection days 2 and 3 (reads of this peptide / all reads for the bait, averaged over ….
As for chain 1 D2T, the screen value is 0.00067 average fractional NGS count over selection days 2 and 3 (reads of this peptide / all reads for the bait, averaged over ….
In the case of chain 1 P10V, the screen value was 0.000485 average fractional NGS count over selection days 2 and 3 (reads of this peptide / all reads for the bait, averaged over ….
On to chain 1 P10I, for which the screen value is 0.00026 average fractional NGS count over selection days 2 and 3 (reads of this peptide / all reads for the bait, averaged over ….
Same read-out and setting: then chain 1 P10G, with 0.00227 average fractional NGS count over selection days 2 and 3 (reads of this peptide / all reads for the bait, averaged over …; and chain 1 P10S, with 0.00055 average fractional NGS count over selection days 2 and 3 (reads of this peptide / all reads for the bait, averaged over …; and chain 1 P10N, with 0.00396 average fractional NGS count over selection days 2 and 3 (reads of this peptide / all reads for the bait, averaged over ….
As for chain 1 S14A, the screen value was 0.00151 average fractional NGS count over selection days 2 and 3 (reads of this peptide / all reads for the bait, averaged over ….
Still for that read-out and setting: then chain 1 S14D, with 0.00662 average fractional NGS count over selection days 2 and 3 (reads of this peptide / all reads for the bait, averaged over ….
On the same count and under the same terms, then chain 1 S14K, with 0.000852 average fractional NGS count over selection days 2 and 3 (reads of this peptide / all reads for the bait, averaged over ….
Turning to chain 1 S14P, the screen value was 0.000401 average fractional NGS count over selection days 2 and 3 (reads of this peptide / all reads for the bait, averaged over ….
Take chain 1 S14L: the screen value is 0.00127 average fractional NGS count over selection days 2 and 3 (reads of this peptide / all reads for the bait, averaged over ….
As for chain 1 S14I, the screen value was 0.000211 average fractional NGS count over selection days 2 and 3 (reads of this peptide / all reads for the bait, averaged over ….
Take chain 1 E3L: the screen value was 0.00278 average fractional NGS count over selection days 2 and 3 (reads of this peptide / all reads for the bait, averaged over ….
Still for that read-out and setting: then chain 1 E3K, with 0.00138 average fractional NGS count over selection days 2 and 3 (reads of this peptide / all reads for the bait, averaged over ….
In the case of chain 1 E3R, the screen value was 0.000973 average fractional NGS count over selection days 2 and 3 (reads of this peptide / all reads for the bait, averaged over ….
Still for that read-out and setting: then chain 1 E3Q, with 0.000394 average fractional NGS count over selection days 2 and 3 (reads of this peptide / all reads for the bait, averaged over …; and chain 1 S5F, with 0.000252 average fractional NGS count over selection days 2 and 3 (reads of this peptide / all reads for the bait, averaged over …; and chain 1 S5A, with 0.0049 average fractional NGS count over selection days 2 and 3 (reads of this peptide / all reads for the bait, averaged over ….
For the variant chain 1 S5V, the screen value is 0.0006 average fractional NGS count over selection days 2 and 3 (reads of this peptide / all reads for the bait, averaged over ….
In the case of chain 1 S5Y, the screen value is 0.000589 average fractional NGS count over selection days 2 and 3 (reads of this peptide / all reads for the bait, averaged over ….
As to chain 1 S9H, the screen value was 0.000148 average fractional NGS count over selection days 2 and 3 (reads of this peptide / all reads for the bait, averaged over ….
On the same count and under the same terms, with chain 1 S9M the figure was 0.000276 average fractional NGS count over selection days 2 and 3 (reads of this peptide / all reads for the bait, averaged over ….
On the same count and under the same terms, then chain 1 S9T, with 0.000558 average fractional NGS count over selection days 2 and 3 (reads of this peptide / all reads for the bait, averaged over ….
The same measure, in the same setting: with chain 1 S9D the figure was 7.45e-05 average fractional NGS count over selection days 2 and 3 (reads of this peptide / all reads for the bait, averaged over …; with chain 1 S9N, 0.0022 average fractional NGS count over selection days 2 and 3 (reads of this peptide / all reads for the bait, averaged over …; with chain 1 V7Q, 0.00122 average fractional NGS count over selection days 2 and 3 (reads of this peptide / all reads for the bait, averaged over ….
For the variant chain 1 V7N, the screen value was 0.0129 average fractional NGS count over selection days 2 and 3 (reads of this peptide / all reads for the bait, averaged over ….
On the same count and under the same terms, with chain 1 V7R the figure was 0.00391 average fractional NGS count over selection days 2 and 3 (reads of this peptide / all reads for the bait, averaged over ….
Consider chain 1 V7S, for which the screen value was 0.00114 average fractional NGS count over selection days 2 and 3 (reads of this peptide / all reads for the bait, averaged over ….
Same read-out and setting: then chain 1 R4N, with 0.00121 average fractional NGS count over selection days 2 and 3 (reads of this peptide / all reads for the bait, averaged over …; and chain 1 R4Q, with 0.00324 average fractional NGS count over selection days 2 and 3 (reads of this peptide / all reads for the bait, averaged over ….
Same read-out and setting: with chain 1 R4T the figure was 0.000696 average fractional NGS count over selection days 2 and 3 (reads of this peptide / all reads for the bait, averaged over …; with chain 1 R4V, 0.00216 average fractional NGS count over selection days 2 and 3 (reads of this peptide / all reads for the bait, averaged over …; with chain 1 R4F, 0.00144 average fractional NGS count over selection days 2 and 3 (reads of this peptide / all reads for the bait, averaged over ….
Consider chain 1 R4E, for which the screen value was 0.00181 average fractional NGS count over selection days 2 and 3 (reads of this peptide / all reads for the bait, averaged over ….
Consider chain 1 R4K, for which the screen value was 0.000222 average fractional NGS count over selection days 2 and 3 (reads of this peptide / all reads for the bait, averaged over ….
The same measure, in the same setting: with chain 1 R4L the figure was 0.00628 average fractional NGS count over selection days 2 and 3 (reads of this peptide / all reads for the bait, averaged over …; with chain 1 R4H, 0.00121 average fractional NGS count over selection days 2 and 3 (reads of this peptide / all reads for the bait, averaged over ….
As to chain 1 Y8D, the screen value was 0.00213 average fractional NGS count over selection days 2 and 3 (reads of this peptide / all reads for the bait, averaged over ….
The same measure, in the same setting: with chain 1 Y8P the figure was 0.000696 average fractional NGS count over selection days 2 and 3 (reads of this peptide / all reads for the bait, averaged over ….
Still for that read-out and setting: with chain 1 Y8R the figure was 0.0156 average fractional NGS count over selection days 2 and 3 (reads of this peptide / all reads for the bait, averaged over …; with chain 1 Y8F, 0.00543 average fractional NGS count over selection days 2 and 3 (reads of this peptide / all reads for the bait, averaged over …; with chain 1 H12Y, 0.000256 average fractional NGS count over selection days 2 and 3 (reads of this peptide / all reads for the bait, averaged over ….
As for chain 1 H12L, the screen value was 0.00133 average fractional NGS count over selection days 2 and 3 (reads of this peptide / all reads for the bait, averaged over ….
Same read-out and setting: then chain 1 H12S, with 0.000155 average fractional NGS count over selection days 2 and 3 (reads of this peptide / all reads for the bait, averaged over …; and chain 1 H12R, with 0.000172 average fractional NGS count over selection days 2 and 3 (reads of this peptide / all reads for the bait, averaged over …; and chain 1 H12E, with 0.00161 average fractional NGS count over selection days 2 and 3 (reads of this peptide / all reads for the bait, averaged over ….
Take chain 1 H12I: the screen value was 0.000636 average fractional NGS count over selection days 2 and 3 (reads of this peptide / all reads for the bait, averaged over ….
The same measure, in the same setting: then chain 1 L11M, with 0.000374 average fractional NGS count over selection days 2 and 3 (reads of this peptide / all reads for the bait, averaged over …; and chain 1 L11G, with 0.000282 average fractional NGS count over selection days 2 and 3 (reads of this peptide / all reads for the bait, averaged over …; and chain 1 L11W, with 0.000722 average fractional NGS count over selection days 2 and 3 (reads of this peptide / all reads for the bait, averaged over ….
